Measurements taken from patent US20140072613A1, “Compositions and Methods for Treating Cutaneous Scarring” (priority 2012, published 2014).

Assays:
Assay in all cases: biochemical
Format in all cases: biochemical
266 human kinases [1] = molecular target: T1, 266 human kinases (Homo sapiens, UniProt Q8IW41); conditions: PRAK(h); 100 μM
T1 sequence (Q8IW41 1-473): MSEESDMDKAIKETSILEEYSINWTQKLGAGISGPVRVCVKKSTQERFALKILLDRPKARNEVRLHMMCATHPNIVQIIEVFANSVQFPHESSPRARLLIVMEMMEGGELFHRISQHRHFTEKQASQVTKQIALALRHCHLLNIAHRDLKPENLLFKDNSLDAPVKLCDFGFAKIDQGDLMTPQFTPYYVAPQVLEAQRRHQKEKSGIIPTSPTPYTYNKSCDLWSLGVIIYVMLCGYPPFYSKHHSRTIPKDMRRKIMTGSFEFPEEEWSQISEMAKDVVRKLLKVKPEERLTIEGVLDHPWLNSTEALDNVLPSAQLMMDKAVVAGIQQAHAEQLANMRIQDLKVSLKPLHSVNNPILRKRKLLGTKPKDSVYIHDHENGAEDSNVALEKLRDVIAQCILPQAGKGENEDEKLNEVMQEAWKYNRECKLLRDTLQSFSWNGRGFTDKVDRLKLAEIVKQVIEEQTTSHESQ
Summary of the method: (§1)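 Kinase phosphorylates cationic substrate with radiolabelled ATP phosphate; substrate retained on anionic filter membrane; scintillation count; % of 100% activity control.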

266 human kinases [2] = molecular target: 266 human kinases (Homo sapiens, UniProt P00519); conditions: Abl(h); 100 μM
Summary of the method: as §1

266 human kinases [3] = molecular target: 266 human kinases (Homo sapiens, UniProt P06493); conditions: CDK1/cyclinB(h); 100 μM
266 human kinases (Homo sapiens, UniProt P06493), sequence (P06493 whole entry): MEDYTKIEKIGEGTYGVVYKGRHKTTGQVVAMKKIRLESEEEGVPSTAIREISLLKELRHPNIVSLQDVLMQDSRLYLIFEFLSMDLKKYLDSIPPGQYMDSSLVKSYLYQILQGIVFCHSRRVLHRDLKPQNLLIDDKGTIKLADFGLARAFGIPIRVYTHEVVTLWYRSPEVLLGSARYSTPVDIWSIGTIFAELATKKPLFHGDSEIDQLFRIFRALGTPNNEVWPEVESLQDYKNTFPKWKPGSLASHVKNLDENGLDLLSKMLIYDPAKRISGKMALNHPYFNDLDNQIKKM
Summary of the method: as §1

266 human kinases [4] = molecular target: 266 human kinases (Homo sapiens, UniProt P00519, Q252H); conditions: Abl(Q252H)(h); 100 μM
Summary of the method: as §1

266 human kinases [5] = molecular target: 266 human kinases (Homo sapiens, UniProt Q9HBH9); conditions: Mnk2(h); 100 μM
266 human kinases (Homo sapiens, UniProt Q9HBH9), sequence (Q9HBH9 whole entry): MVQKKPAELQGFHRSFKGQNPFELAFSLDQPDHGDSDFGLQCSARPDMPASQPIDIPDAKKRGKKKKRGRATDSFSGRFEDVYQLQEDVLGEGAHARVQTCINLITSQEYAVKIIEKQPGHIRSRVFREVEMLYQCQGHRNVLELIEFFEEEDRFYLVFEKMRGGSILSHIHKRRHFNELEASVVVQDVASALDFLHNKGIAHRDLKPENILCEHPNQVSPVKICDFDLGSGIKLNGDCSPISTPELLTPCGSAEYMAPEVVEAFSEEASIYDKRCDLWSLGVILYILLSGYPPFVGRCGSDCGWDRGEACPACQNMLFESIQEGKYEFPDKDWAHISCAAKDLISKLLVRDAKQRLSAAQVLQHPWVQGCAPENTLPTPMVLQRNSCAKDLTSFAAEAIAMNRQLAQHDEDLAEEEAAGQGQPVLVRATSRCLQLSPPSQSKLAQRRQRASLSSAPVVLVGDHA
Summary of the method: as §1

266 human kinases [6] = molecular target: T2, 266 human kinases (Homo sapiens, UniProt Q9HBY8); conditions: SGK2(h); 100 μM
T2 sequence (Q9HBY8 whole entry, looked up): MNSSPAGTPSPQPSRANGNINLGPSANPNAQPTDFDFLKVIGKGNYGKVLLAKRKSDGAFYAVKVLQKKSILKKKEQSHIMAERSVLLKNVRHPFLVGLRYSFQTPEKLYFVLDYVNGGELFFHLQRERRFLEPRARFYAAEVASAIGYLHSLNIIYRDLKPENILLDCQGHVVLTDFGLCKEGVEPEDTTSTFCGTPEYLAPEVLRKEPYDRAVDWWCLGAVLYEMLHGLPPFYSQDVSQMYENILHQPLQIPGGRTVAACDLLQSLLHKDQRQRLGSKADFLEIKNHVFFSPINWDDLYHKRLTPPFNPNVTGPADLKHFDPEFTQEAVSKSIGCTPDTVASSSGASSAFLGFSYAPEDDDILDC
Summary of the method: as §1

266 human kinases [7] = molecular target: 266 human kinases (Homo sapiens, UniProt P53355); conditions: DAPK1(h); 100 μM
266 human kinases (Homo sapiens, UniProt P53355), sequence (P53355 whole entry): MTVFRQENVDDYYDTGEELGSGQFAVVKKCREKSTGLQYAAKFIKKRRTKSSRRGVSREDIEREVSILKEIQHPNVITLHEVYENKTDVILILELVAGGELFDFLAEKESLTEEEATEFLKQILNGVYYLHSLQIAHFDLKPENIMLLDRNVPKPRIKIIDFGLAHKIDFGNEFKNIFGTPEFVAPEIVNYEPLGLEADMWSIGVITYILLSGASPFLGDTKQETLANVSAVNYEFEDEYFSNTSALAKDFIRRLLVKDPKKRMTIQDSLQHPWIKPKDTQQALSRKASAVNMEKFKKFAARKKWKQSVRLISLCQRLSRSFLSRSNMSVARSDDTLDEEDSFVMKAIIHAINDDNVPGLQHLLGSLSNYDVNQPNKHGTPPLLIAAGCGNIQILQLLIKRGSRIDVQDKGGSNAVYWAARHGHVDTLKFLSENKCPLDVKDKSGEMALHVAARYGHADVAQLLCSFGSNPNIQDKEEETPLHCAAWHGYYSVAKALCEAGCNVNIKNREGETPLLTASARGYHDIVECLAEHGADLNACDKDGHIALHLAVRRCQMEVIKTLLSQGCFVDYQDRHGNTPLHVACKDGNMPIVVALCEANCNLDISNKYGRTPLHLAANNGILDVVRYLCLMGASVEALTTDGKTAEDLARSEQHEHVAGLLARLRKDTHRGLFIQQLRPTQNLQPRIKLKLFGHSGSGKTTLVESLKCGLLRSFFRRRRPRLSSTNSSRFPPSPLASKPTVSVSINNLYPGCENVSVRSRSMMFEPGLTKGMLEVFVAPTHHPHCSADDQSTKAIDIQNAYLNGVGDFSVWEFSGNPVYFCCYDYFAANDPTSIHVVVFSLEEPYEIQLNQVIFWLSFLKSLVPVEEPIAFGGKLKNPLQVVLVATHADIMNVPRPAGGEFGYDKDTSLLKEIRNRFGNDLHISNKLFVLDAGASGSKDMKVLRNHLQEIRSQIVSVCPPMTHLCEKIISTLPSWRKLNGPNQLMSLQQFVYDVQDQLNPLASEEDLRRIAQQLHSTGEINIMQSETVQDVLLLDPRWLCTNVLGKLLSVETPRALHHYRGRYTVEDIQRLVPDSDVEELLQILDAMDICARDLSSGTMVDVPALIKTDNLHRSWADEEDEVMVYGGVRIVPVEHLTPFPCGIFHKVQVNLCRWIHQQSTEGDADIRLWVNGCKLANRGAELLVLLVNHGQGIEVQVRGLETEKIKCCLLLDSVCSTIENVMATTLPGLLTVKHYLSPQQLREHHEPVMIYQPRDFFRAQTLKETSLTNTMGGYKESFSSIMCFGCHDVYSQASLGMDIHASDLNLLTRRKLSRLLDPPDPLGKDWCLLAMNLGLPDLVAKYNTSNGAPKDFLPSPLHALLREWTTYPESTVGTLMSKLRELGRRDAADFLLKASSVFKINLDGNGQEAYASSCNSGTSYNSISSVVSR
Summary of the method: as §1

266 human kinases [8] = molecular target: 266 human kinases (Homo sapiens, UniProt P10721, D816H); conditions: cKit(D816H)(h); 100 μM
Summary of the method: as §1

266 human kinases [9] = molecular target: 266 human kinases (Homo sapiens, UniProt P00533, T790M); conditions: EGFR(T790M)(h); 100 μM
Summary of the method: as §1

266 human kinases [10] = molecular target: T3, 266 human kinases (Homo sapiens, UniProt Q9UBE8); conditions: NLK(h); 100 μM
T3 sequence (Q9UBE8 1-527): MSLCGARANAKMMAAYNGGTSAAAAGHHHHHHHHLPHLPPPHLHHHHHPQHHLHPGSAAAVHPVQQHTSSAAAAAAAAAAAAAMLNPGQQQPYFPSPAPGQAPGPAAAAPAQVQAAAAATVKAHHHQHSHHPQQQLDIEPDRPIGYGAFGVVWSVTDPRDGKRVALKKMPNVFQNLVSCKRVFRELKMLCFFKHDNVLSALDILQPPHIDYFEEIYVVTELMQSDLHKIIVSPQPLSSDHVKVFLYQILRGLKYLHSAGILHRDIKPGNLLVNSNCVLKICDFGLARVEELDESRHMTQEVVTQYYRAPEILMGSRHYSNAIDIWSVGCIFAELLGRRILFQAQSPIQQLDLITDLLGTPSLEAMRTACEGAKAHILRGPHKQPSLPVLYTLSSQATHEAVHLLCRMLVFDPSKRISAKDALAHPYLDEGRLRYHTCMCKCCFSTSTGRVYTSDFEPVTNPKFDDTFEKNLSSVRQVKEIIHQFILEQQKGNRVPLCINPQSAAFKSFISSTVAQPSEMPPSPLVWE
Summary of the method: as §1

266 human kinases [11] = molecular target: 266 human kinases (Homo sapiens, UniProt Q86Y07); conditions: VRK2(h); 100 μM
266 human kinases (Homo sapiens, UniProt Q86Y07), sequence (Q86Y07 whole entry): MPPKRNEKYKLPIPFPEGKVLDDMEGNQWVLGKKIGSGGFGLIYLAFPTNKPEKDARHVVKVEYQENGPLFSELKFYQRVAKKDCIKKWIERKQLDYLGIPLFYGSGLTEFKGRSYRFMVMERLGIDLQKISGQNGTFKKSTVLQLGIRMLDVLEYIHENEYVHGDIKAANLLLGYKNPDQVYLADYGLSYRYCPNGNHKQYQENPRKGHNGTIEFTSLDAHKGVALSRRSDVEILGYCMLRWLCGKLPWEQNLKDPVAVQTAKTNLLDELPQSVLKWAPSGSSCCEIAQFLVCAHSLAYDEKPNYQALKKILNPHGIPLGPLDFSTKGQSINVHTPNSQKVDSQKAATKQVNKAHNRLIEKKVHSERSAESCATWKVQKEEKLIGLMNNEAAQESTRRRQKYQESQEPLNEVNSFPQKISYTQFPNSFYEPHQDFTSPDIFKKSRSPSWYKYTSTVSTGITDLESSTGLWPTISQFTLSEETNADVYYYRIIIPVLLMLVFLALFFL
Summary of the method: as §1

266 human kinases [12] = molecular target: 266 human kinases (Homo sapiens, UniProt O96017); conditions: CHK2(h); 100 μM
266 human kinases (Homo sapiens, UniProt O96017), sequence (O96017 whole entry): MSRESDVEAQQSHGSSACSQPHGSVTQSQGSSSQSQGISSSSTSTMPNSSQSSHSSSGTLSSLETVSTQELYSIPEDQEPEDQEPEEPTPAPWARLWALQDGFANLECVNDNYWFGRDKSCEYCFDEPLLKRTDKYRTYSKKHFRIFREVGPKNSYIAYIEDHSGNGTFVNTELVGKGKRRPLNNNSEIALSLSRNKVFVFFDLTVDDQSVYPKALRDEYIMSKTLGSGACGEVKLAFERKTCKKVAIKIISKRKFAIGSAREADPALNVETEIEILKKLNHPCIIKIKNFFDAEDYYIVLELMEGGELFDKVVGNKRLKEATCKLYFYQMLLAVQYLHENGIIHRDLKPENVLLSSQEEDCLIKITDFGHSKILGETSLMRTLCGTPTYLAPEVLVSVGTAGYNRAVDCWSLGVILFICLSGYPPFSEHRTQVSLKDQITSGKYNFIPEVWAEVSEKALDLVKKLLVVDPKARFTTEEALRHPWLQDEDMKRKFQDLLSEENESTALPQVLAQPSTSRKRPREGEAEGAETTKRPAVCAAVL
Summary of the method: as §1

266 human kinases [13] = molecular target: 266 human kinases (Homo sapiens, UniProt O14757); conditions: CHK1(h); 100 μM
266 human kinases (Homo sapiens, UniProt O14757), sequence (O14757 whole entry): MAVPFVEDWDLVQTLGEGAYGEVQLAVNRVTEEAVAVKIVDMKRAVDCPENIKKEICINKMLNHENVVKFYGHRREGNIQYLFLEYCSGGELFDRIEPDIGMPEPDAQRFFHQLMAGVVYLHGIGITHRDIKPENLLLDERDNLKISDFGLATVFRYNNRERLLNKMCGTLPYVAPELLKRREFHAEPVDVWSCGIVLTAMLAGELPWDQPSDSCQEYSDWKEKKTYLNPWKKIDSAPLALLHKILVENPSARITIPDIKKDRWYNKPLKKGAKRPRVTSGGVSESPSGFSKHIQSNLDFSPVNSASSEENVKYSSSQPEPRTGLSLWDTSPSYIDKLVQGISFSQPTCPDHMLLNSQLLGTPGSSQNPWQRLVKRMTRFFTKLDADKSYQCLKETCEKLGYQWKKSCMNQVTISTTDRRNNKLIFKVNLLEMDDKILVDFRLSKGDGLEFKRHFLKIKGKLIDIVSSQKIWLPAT
Summary of the method: as §1

266 human kinases [14] = molecular target: 266 human kinases (Homo sapiens, UniProt Q8N4C8); conditions: MINK(h); 100 μM
266 human kinases (Homo sapiens, UniProt Q8N4C8), sequence (Q8N4C8 whole entry): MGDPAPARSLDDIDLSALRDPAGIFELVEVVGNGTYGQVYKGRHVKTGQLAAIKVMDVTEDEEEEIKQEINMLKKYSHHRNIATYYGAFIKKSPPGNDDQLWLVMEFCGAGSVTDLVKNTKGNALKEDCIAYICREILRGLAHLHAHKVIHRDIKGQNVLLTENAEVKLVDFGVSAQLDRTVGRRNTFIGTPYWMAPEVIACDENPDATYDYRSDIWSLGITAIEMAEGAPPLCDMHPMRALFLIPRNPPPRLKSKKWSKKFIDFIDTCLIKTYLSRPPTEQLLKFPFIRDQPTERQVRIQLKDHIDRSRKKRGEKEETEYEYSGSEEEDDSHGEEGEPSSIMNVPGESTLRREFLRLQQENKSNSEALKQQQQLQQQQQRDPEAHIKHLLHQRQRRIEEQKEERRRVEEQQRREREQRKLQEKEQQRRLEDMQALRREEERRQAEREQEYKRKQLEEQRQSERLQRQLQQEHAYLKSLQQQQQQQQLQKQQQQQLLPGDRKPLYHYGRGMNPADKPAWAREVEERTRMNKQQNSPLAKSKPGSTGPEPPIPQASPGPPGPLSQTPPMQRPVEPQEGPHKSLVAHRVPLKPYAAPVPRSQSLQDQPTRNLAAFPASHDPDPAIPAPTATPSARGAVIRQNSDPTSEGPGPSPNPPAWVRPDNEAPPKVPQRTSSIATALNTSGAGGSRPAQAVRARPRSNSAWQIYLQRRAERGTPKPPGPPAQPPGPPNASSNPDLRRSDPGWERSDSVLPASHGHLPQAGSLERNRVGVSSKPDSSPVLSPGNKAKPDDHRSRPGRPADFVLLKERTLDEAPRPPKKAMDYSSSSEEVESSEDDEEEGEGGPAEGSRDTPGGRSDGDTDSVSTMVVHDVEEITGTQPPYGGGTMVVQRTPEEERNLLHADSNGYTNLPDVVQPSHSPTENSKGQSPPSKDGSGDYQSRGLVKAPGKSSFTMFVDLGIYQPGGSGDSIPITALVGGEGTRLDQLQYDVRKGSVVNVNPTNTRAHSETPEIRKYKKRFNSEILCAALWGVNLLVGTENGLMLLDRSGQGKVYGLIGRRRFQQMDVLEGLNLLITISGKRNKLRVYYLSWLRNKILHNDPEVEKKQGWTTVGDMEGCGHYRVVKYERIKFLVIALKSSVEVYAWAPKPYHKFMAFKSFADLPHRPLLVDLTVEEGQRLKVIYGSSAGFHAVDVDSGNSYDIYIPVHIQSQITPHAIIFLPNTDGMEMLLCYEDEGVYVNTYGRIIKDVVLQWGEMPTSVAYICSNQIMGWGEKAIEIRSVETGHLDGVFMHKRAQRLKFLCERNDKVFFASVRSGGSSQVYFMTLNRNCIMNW
Summary of the method: as §1

HRRIKAWLKKIKALARQLGVAA (mammal) [MMI-0500]
% activity (266 human kinases [1]): 95% | % activity (266 human kinases [2]): 16% | % activity (266 human kinases [3]): 57% | % activity (266 human kinases [4]): 40% | % activity (266 human kinases [5]): 6% | % activity (266 human kinases [6]): −1% | % activity (266 human kinases [7]): 0% | % activity (266 human kinases [8]): 194% | % activity (266 human kinases [9]): 70% | % activity (266 human kinases [10]): 19% | % activity (266 human kinases [11]): 169% | % activity (266 human kinases [12]): 13% | % activity (266 human kinases [13]): 65% | % activity (266 human kinases [14]): 5%
